The results in this text go back to PMC4917648, “praja2 regulates KSR1 stability and mitogenic signaling” (Cell Death & Disease, 2016).

The target in this test is T1, kinase suppressor of Ras 1 (KSR1), endogenous (human (endogenous in HEK293), UniProt Q8IVT5 1-923).
T1 sequence (looked up): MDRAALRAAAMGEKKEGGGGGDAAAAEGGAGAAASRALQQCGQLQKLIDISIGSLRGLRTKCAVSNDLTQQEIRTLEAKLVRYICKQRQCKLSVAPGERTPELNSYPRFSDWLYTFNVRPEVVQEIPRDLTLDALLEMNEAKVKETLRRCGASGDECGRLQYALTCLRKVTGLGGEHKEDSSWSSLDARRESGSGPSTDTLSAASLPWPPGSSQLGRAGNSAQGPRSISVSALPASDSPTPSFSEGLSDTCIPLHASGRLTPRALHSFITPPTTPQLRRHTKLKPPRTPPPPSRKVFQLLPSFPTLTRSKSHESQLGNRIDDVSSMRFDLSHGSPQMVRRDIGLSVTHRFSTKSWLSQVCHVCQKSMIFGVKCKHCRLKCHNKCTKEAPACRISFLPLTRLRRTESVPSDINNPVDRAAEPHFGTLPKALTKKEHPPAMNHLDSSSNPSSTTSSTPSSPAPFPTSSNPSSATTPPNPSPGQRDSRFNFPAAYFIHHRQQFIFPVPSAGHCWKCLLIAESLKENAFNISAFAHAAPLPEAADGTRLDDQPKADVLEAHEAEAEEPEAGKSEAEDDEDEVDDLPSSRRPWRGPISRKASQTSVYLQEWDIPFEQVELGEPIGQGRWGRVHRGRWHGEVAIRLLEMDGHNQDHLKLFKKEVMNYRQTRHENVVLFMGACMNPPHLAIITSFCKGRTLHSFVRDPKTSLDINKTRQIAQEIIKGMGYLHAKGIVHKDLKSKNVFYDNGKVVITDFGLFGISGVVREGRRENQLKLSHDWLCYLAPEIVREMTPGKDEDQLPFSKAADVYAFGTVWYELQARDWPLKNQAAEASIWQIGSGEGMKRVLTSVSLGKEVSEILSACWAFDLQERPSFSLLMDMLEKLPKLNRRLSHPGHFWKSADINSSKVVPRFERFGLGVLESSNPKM
Description: cell-based or functional assay.

B1: praja2 (endogenous) (natural protein, human (endogenous in HEK293), UniProt O43164 1-708, looked up)
chain: MSQYTEKEPAAMDQESGKAVWPKPAGGYQTITGRRYGRRHAYVSFKPCMTRHERSLGRAGDDYEVLELDDVPKENSSGSSPLDQVDSSLPSEPIFEKSETEIPTCGSALNQTTESSQSFVAVHHSEEGRDTLGSSTNLHNHSEGEYIPGACSASSVQNGIALVHTDSYDPDGKHGEDNDHLQLSAEVVEGSRYQESLGNTVFELENREAEAYTGLSPPVPSFNCEVRDEFEELDSVPLVKSSAGDTEFVHQNSQEIQRSSQDEMVSTKQQNNTSQERQTEHSPEDAACGPGHICSEQNTNDREKNHGSSPEQVVRPKVRKLISSSQVDQETGFNRHEAKQRSVQRWREALEVEESGSDDLLIKCEEYDGEHDCMFLDPPYSRVITQRETENNQMTSESGATAGRQEVDNTFWNGCGDYYQLYDKDEDSSECSDGEWSASLPHRFSGTEKDQSSSDESWETLPGKDENEPELQSDSSGPEEENQELSLQEGEQTSLEEGEIPWLQYNEVNESSSDEGNEPANEFAQPAFMLDGNNNLEDDSSVSEDLDVDWSLFDGFADGLGVAEAISYVDPQFLTYMALEERLAQAMETALAHLESLAVDVEVANPPASKESIDGLPETLVLEDHTAIGQEQCCPICCSEYIKDDIATELPCHHFFHKPCVSIWLQKSGTCPVCRRHFPPAVIEASAAPSSEPDPDAPPSNDSIAEAP
In the case of B1, the “growth of MCF-7 cells treated for 48 h with go-onERK-Flag against scrambled-Flag (cell counts)” value is about 2 fold.
